Laboratory results taken from patent publication US20200087373A1 (UNIVERSITY OF COPENHAGEN, published 2020).
Ends that are not written are not given here. * marks the point of attachment. C16 diacid = O=C(O)CCCCCCCCCCCCCCC(=O)*; Palmitoyl = CCCCCCCCCCCCCCCC(=O)*; Myristoyl = CCCCCCCCCCCCCC(=O)*

T1: human GIP receptor (human, UniProt P48546 22-466)
T1 construct: whole, on cells; also called hGIPR
T1 sequence (looked up): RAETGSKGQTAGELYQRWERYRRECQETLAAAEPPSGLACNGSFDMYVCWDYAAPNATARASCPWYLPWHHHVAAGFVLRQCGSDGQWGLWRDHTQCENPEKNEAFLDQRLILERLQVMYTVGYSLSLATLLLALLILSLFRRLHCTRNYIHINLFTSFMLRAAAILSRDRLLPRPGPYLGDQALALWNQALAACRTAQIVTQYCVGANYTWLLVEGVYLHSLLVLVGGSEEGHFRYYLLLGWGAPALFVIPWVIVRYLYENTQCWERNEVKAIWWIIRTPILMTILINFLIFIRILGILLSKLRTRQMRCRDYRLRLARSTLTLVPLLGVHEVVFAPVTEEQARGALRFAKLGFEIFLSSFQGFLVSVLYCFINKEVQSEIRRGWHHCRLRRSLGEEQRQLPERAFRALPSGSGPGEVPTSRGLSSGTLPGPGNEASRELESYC


How the values were obtained:
human GIP receptor [1] = biological target: T1, human GIP receptor; assay: IC50 with 2% HSA over IC50 with 0.1% casein, 125I-hGIP competition, COS-7/hGIPR
Method: (§1) After incubation, the cells were washed twice in ice-cold binding buffer (+/−2% HSA) and lysed using 200 mM NaOH with 1% SDS for 30 min. Nonspecific binding was determined as the binding of radioactive ligand to untransfected cells.

human GIP receptor [2] = biological target: T1, human GIP receptor; assay: 125I-hGIP competition binding, COS-7/hGIPR, 0.1% casein;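 note: nonspecific binding defined as radioligand binding measured on untransfected cells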
Method: as §1

human GIP receptor [3] = biological target: T1, human GIP receptor; assay: 125I-hGIP competition binding, COS-7 cells expressing hGIPR;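 note: nonspecific binding taken as radioligand bound by untransfected cells, binding buffer with or without 2% HSA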
Method: as §1

human GIP receptor [4] = biological target: T1, human GIP receptor; assay: 125I-hGIP competition binding, COS-7/hGIPR, 2% HSA;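 note: nonspecific binding defined as radioligand binding to untransfected cells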
Method: as §1

human GIP receptor [5] = biological target: T1, human GIP receptor; assay: cell-based or functional assay

Binder	Fold change HSA (2%)/Casein (0.1%) (human GIP receptor [1]) [fold]	IC50 (human GIP receptor [2]) [nM]	logIC50 (human GIP receptor [2]) [log M]	IC50 (human GIP receptor [3]) [nM]	log IC50 (human GIP receptor [3]) [log M]	IC50 (human GIP receptor [4]) [nM]	logIC50 (human GIP receptor [4]) [log M]	cAMP agonism, Emax (human GIP receptor [5])	cAMP antagonism (human GIP receptor [5]) [nM]	cAMP antagonism, log (human GIP receptor [5]) [log M]
Palmitoyl-TFISDYSIAMDKIHQQDFVNWLLAQK-NH2 (SMILES CCCCCCCCCCCCCCCC(=O)N[C@H](C(=O)N[C@@H](Cc1ccccc1)C(=O)N[C@H](C(=O)N[C@@H](CO)C(=O)N[C@@H](CC(=O)O)C(=O)N[C@@H](Cc1ccc(O)cc1)C(=O)N[C@@H](CO)C(=O)N[C@H](C(=O)N[C@@H](C)C(=O)N[C@@H](CCSC)C(=O)N[C@@H](CC(=O)O)C(=O)N[C@@H](CCCCN)C(=O)N[C@H](C(=O)N[C@@H](Cc1c[nH]cn1)C(=O)N[C@@H](CCC(N)=O)C(=O)N[C@@H](CCC(N)=O)C(=O)N[C@@H](CC(=O)O)C(=O)N[C@@H](Cc1ccccc1)C(=O)N[C@H](C(=O)N[C@@H](CC(N)=O)C(=O)N[C@@H](Cc1c[nH]c2ccccc12)C(=O)N[C@@H](CC(C)C)C(=O)N[C@@H](CC(C)C)C(=O)N[C@@H](C)C(=O)N[C@@H](CCC(N)=O)C(=O)N[C@@H](CCCCN)C(N)=O)C(C)C)[C@@H](C)CC)[C@@H](C)CC)[C@@H](C)CC)[C@@H](C)O) [AT124 [hGIP(5-30)NH2-C16/5]]	5.2	1590	-5.8	361	-6.4	8240	-5.1	–	–	–
TFISDYSIAMDK(Myristoyl)IHQQDFVNWLLAQK-NH2 (N-terminus assumed; SMILES CCCCCCCCCCCCCC(=O)NCCCC[C@H](NC(=O)[C@H](CC(=O)O)NC(=O)[C@H](CCSC)NC(=O)[C@H](C)NC(=O)[C@@H](NC(=O)[C@H](CO)NC(=O)[C@H](Cc1ccc(O)cc1)NC(=O)[C@H](CC(=O)O)NC(=O)[C@H](CO)NC(=O)[C@@H](NC(=O)[C@H](Cc1ccccc1)NC(=O)[C@@H](N)[C@@H](C)O)[C@@H](C)CC)[C@@H](C)CC)C(=O)N[C@H](C(=O)N[C@@H](Cc1c[nH]cn1)C(=O)N[C@@H](CCC(N)=O)C(=O)N[C@@H](CCC(N)=O)C(=O)N[C@@H](CC(=O)O)C(=O)N[C@@H](Cc1ccccc1)C(=O)N[C@H](C(=O)N[C@@H](CC(N)=O)C(=O)N[C@@H](Cc1c[nH]c2ccccc12)C(=O)N[C@@H](CC(C)C)C(=O)N[C@@H](CC(C)C)C(=O)N[C@@H](C)C(=O)N[C@@H](CCC(N)=O)C(=O)N[C@@H](CCCCN)C(N)=O)C(C)C)[C@@H](C)CC) [AT122 [hGIP(5-30)NH2-C14/16]]	4.9	1230	-5.9	591	-6.2	6080	-5.2	–	–	–
TKISDYSIAMDKIHQQDFVNWLLAQK (C16-diacid fatty acyl on Lys 6 (GIP numbering); C-terminal amide) [AT168 [hGIP(5-30)NH2[F6K]-C16diacid/6]]	2	50.1	-7.3	48	-7.3	100	-7	0	96	-7
TFIK(C16 diacid)DYSIAMDKIHQQDFVNWLLAQK-NH2 (N-terminus assumed; SMILES CC[C@H](C)[C@H](NC(=O)[C@H](CO)NC(=O)[C@H](Cc1ccc(O)cc1)NC(=O)[C@H](CC(=O)O)NC(=O)[C@H](CCCCNC(=O)CCCCCCCCCCCCCCC(=O)O)NC(=O)[C@@H](NC(=O)[C@H](Cc1ccccc1)NC(=O)[C@@H](N)[C@@H](C)O)[C@@H](C)CC)C(=O)N[C@@H](C)C(=O)N[C@@H](CCSC)C(=O)N[C@@H](CC(=O)O)C(=O)N[C@@H](CCCCN)C(=O)N[C@H](C(=O)N[C@@H](Cc1c[nH]cn1)C(=O)N[C@@H](CCC(N)=O)C(=O)N[C@@H](CCC(N)=O)C(=O)N[C@@H](CC(=O)O)C(=O)N[C@@H](Cc1ccccc1)C(=O)N[C@H](C(=O)N[C@@H](CC(N)=O)C(=O)N[C@@H](Cc1c[nH]c2ccccc12)C(=O)N[C@@H](CC(C)C)C(=O)N[C@@H](CC(C)C)C(=O)N[C@@H](C)C(=O)N[C@@H](CCC(N)=O)C(=O)N[C@@H](CCCCN)C(N)=O)C(C)C)[C@@H](C)CC) [AT170 [hGIP(5-30)NH2[S8K]-C16diacid/8]]	2.2	631	-6.2	628	-6.2	1380	-5.9	0	507	-6.3
TFISK(C16 diacid)YSIAMDKIHQQDFVNWLLAQK-NH2 (N-terminus assumed; SMILES CC[C@H](C)[C@H](NC(=O)[C@H](CO)NC(=O)[C@H](Cc1ccc(O)cc1)NC(=O)[C@H](CCCCNC(=O)CCCCCCCCCCCCCCC(=O)O)NC(=O)[C@H](CO)NC(=O)[C@@H](NC(=O)[C@H](Cc1ccccc1)NC(=O)[C@@H](N)[C@@H](C)O)[C@@H](C)CC)C(=O)N[C@@H](C)C(=O)N[C@@H](CCSC)C(=O)N[C@@H](CC(=O)O)C(=O)N[C@@H](CCCCN)C(=O)N[C@H](C(=O)N[C@@H](Cc1c[nH]cn1)C(=O)N[C@@H](CCC(N)=O)C(=O)N[C@@H](CCC(N)=O)C(=O)N[C@@H](CC(=O)O)C(=O)N[C@@H](Cc1ccccc1)C(=O)N[C@H](C(=O)N[C@@H](CC(N)=O)C(=O)N[C@@H](Cc1c[nH]c2ccccc12)C(=O)N[C@@H](CC(C)C)C(=O)N[C@@H](CC(C)C)C(=O)N[C@@H](C)C(=O)N[C@@H](CCC(N)=O)C(=O)N[C@@H](CCCCN)C(N)=O)C(C)C)[C@@H](C)CC) [AT171 [hGIP(5-30)NH2[D9K]-C16diacid/9]]	8.3	79.4	-7.1	86	-7.1	661	-6.2	0	35	-7.5
TFISDK(C16 diacid)SIAMDKIHQQDFVNWLLAQK-NH2 (N-terminus assumed; SMILES CC[C@H](C)[C@H](NC(=O)[C@H](CO)NC(=O)[C@H](CCCCNC(=O)CCCCCCCCCCCCCCC(=O)O)NC(=O)[C@H](CC(=O)O)NC(=O)[C@H](CO)NC(=O)[C@@H](NC(=O)[C@H](Cc1ccccc1)NC(=O)[C@@H](N)[C@@H](C)O)[C@@H](C)CC)C(=O)N[C@@H](C)C(=O)N[C@@H](CCSC)C(=O)N[C@@H](CC(=O)O)C(=O)N[C@@H](CCCCN)C(=O)N[C@H](C(=O)N[C@@H](Cc1c[nH]cn1)C(=O)N[C@@H](CCC(N)=O)C(=O)N[C@@H](CCC(N)=O)C(=O)N[C@@H](CC(=O)O)C(=O)N[C@@H](Cc1ccccc1)C(=O)N[C@H](C(=O)N[C@@H](CC(N)=O)C(=O)N[C@@H](Cc1c[nH]c2ccccc12)C(=O)N[C@@H](CC(C)C)C(=O)N[C@@H](CC(C)C)C(=O)N[C@@H](C)C(=O)N[C@@H](CCC(N)=O)C(=O)N[C@@H](CCCCN)C(N)=O)C(C)C)[C@@H](C)CC) [AT172 [hGIP(5-30)NH2[Y10K]-C16diacid/10]]	3.8	251	-6.6	252	-6.6	955	-6	0	259	-6.6
TFK(C16 diacid)SDYSIAMDKIHQQDFVNWLLAQK-NH2 (N-terminus assumed; SMILES CC[C@H](C)[C@H](NC(=O)[C@H](CO)NC(=O)[C@H](Cc1ccc(O)cc1)NC(=O)[C@H](CC(=O)O)NC(=O)[C@H](CO)NC(=O)[C@H](CCCCNC(=O)CCCCCCCCCCCCCCC(=O)O)NC(=O)[C@H](Cc1ccccc1)NC(=O)[C@@H](N)[C@@H](C)O)C(=O)N[C@@H](C)C(=O)N[C@@H](CCSC)C(=O)N[C@@H](CC(=O)O)C(=O)N[C@@H](CCCCN)C(=O)N[C@H](C(=O)N[C@@H](Cc1c[nH]cn1)C(=O)N[C@@H](CCC(N)=O)C(=O)N[C@@H](CCC(N)=O)C(=O)N[C@@H](CC(=O)O)C(=O)N[C@@H](Cc1ccccc1)C(=O)N[C@H](C(=O)N[C@@H](CC(N)=O)C(=O)N[C@@H](Cc1c[nH]c2ccccc12)C(=O)N[C@@H](CC(C)C)C(=O)N[C@@H](CC(C)C)C(=O)N[C@@H](C)C(=O)N[C@@H](CCC(N)=O)C(=O)N[C@@H](CCCCN)C(N)=O)C(C)C)[C@@H](C)CC) [AT169 [hGIP(5-30)NH2[I7K]-C16diacid/7]]	5.8	28.8	-7.5	28	-7.5	166	-6.8	0	37	-7.4
